Assay results taken from the supplement of paper PMC10266784.

B1: library; numbered along this chain (parent)
chain: MAAAAAAAAEQQSSNGPVKKSMREKAVERRSVNKEHNSNFKAGYIPIDEDRLHKTGLRGRKGNLAICVIILLFILAVINLIITLVIWAVIRIGPNGCDSMEFHESGLLRFKQVSDMGVIHPLYKSTVGGRRNENLVITGNNQPIVFQQGTTKLSVENNKTSITSDIGMQFFDPRTQNILFSTDYETHEFHLPSGVKSLNVQKASTERITSNATSDLNIKVDGRAIVRGNEGVFIMGKTIEFHMGGNMELKAENSIILNGSVMVSTTRLPSSSSGDQLGSGDWVRYKLCMCADGTLFKVQVTSQNMGCQISDNPCGNTH

Variants of: B1
Assay: SGCB cell-surface expression functional score (HA stain, bin4 vs bin1, normalised to synonymous) (log10 ratio); higher = more cell-surface SGCB (functional)
Experimental: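 Deep mutational scan of full-length human SGCB (YFP-SGCB-HA, NNN codon sublibraries A-F) delivered by lentivirus at low MOI into ADG-HEK293 cells stably expressing SGCA, SGCD and SGCG. YFP-positive cells were stained for surface HA on unpermeabilized cells and FACS-sorted into bins. The functional score is log10(frequency in high bin 4 / frequency in low bin 1), normalised per chunk so that synonymous variants have mean 0 and SD 0.5. Scores are the median over codons and over duplicate biological replicates; scores below -0.5 are called non-functional. Scale: negative means deleterious.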

SGCB cell-surface expression functional score (log10): each site, then its substitutions
L80: T 0.42, A 0.19, Y 0.27, S 0.2, R -0.03, V 0.26, M 0.32, P -0.3, G 0.19, K -0.07, F -0.22, W 1.23, N 0.12, C 0.66, I -0.01, H -0.14, Q -0.24, D -0.2, E -0.1
V85: K 0.01, P -1.14, G 0.11, I -0.18, T -0.05, F -0.43, A 0.3, N -0.37, H -0.11, W -0.09, Y -0.17, R -0.06, E 0.35, L 0.24, D -0.21, M 0.58, Q 0.08, C -0.21, S -0.2
I86: M -0.18, D -0.79, G -0.59, S -0.98, K -0.65, E -0.39, N -0.75, H -1.91, Q -0.24, R -0.77, F -0.48, A -0.08, P -0.94, L -0.35, C -0.24
I70: L -0.1, N 0.07, P 0.16, E -0.22, C -0.3, V 0.53, R -0.16, H -0.21, W 1.07, A 0.41, T -0.22, K 0.19, S 0.36, D -0.14, Y -0.14, G 0.35, M 0.77, F -0.2, Q 0.06
I81: H 0.45, S -0.14, D 0.12, G 0, P 0.12, Y -0.45, L 0.1, F -0.08, M -0.08, C -0.06, K -0.06, A 0.13, E 0.31, R -0.73, V -0.03, T -0.23, Q 0.03, N 0.04, W -0.38
I69: N 0.62, Q 0.03, H 0.03, T -0.01, F 0.52, V -0.05, P 0.36, L 0.2, S 0.09, W 0.3, R 0.11, G 0.2, Y 0.41, E 0.15, K -0.04, M 0.22
I82: C 0.11, V 0.04, L 0.07, Y -0.15, H 0.12, E -0.49, R -0.66, S -0.18, K 0.1, F 0.01, M -0.24, Q 0.28, P 0.22, T -0.05, W -1.15, A 0.03, D -0.85, N -0.69, G -0.2
I78: S -0.22, V 0, R -0.54, Y -0.68, Q -0.47, P -0.22, F -0.56, N 0.19, T -0.02, G -0.04, K 0.05, L -0.05, A 0.15, D -0.1, M -0.34, H 0.1, E -0.45, C -0.19, W 0.33
I74: H 0.05, K 0.07, N 0.04, Q 0, P -0.18, M -0.6, C 0.07, E 0.75, Y -0.07, D -0.26, G 0.2, W 0.64, R -1.42, L 0.44, V -0.01, F -0.25, A 0, S -0.05, T -0.02
V77: L -0.16, C -0.11, K -0.21, T -0.07, M 0.2, I -0.12, S -0.06, W -0.2, H -0.48, F 0.04, D 0.07, A -0.12, P -0.24, G -0.14, E -0.04, N -0.21, Q 0.33, R -0.37, Y -0.22
F73: V -0.23, Q 0.6, G 0.22, I -0.11, E 0.42, A 0.13, H 0.54, C 0.34, K 0.54, T -0.22, R -0.59, P 0.07, Y 0.84, L 0.03, N 0.47, D 0.36, M -0.01, S -0.15
T83: Y -0.43, M 0.14, P -0.3, Q 0.46, K -0.33, N 0.2, D -0.02, W -0.91, L 0.1, S -0.2, A -0.17, I 0.05, F -0.77, H -0.43, R -0.49, G 0.04, E -0.18, V -0.11, C -0.51
N79: P 0, T -0.23, K -0.4, S -0.15, Y -0.74, L -0.15, M -0.67, G 0.06, I -0.01, Q 0.29, H -0.33, E 0.06, F -0.85, V 0, W -1.05, R -0.8, D -0.24, C 0.15, A 0.21
L75: F 0.18, C -0.06, V -0.01, Q -0.18, T 0.27, E -0.08, N -0.4, W 0.39, G -0.34, R -0.32, K 0.2, A -0.22, H 0.2, Y -0.25, I 0.09, D -0.31, M 0.77, S 0.09, P 0
L71: S 0.06, V 0.22, D -0.08, G 0.23, T 0.07, I -0.45, K 0.36, Q 0.12, M 0.01, F -0.14, H 0.06, E 0.1, Y -0.5, A 0.26, P -0.04, W 0.61, R -0.37, C -0.37, N 0.19
A76: L 0.08, M -0.23, S 0.05, H -0.07, C 0.13, Y 0.25, K -0.81, F 0.33, T -0.35, E 0.02, N 0.08, R -0.35, P -0.1, Q 0.3, I 0.22, W 0.14, G -0.2, D -0.4, V 0
L84: C -0.21, Y -0.41, P 0.02, D -0.05, V 0.24, T 0.17, G 0.24, A 0, F -0.57, M 0.1, W 0.4, S 0.09, R 0.08, N -0.44, Q 0.78, I 0.01, K 0.18, H -0.4, E 0.26
L72: R -0.09, D -0.14, M 0.13, K -0.18, I 0.41, W 0.28, G 0.44, E -0.02, Q -0.21, F 0.07, N -0.44, H -0.05, V 0.27, C 0.42, T 0.45, A -0.23, S -0.07, P -0.11, Y -0.04
